Assay results as given in paper PMC3154933, “The Nucleotide Exchange Factor Ric-8A Is a Chaperone for the Conformationally Dynamic Nucleotide-Free State of Gαi1” (PLoS ONE, 2011).
No end group written: not given here.

Biological target: T1, Ric-8AΔC492 (rat Ric-8A residues 1–492) (rat, UniProt Q80ZG1 1-492)
T1 construct: Ric-8A, rat, residues 1-492; The His tag is used to adsorb it to IMAC resin in the NMR experiment; also called ΔC492Ric-8A; source: E. coli BL21 (DE3)-RIPL, purified (nickel NTA-agarose, UNO-Q); not shown: His6, N-terminal, kept
T1 sequence (looked up): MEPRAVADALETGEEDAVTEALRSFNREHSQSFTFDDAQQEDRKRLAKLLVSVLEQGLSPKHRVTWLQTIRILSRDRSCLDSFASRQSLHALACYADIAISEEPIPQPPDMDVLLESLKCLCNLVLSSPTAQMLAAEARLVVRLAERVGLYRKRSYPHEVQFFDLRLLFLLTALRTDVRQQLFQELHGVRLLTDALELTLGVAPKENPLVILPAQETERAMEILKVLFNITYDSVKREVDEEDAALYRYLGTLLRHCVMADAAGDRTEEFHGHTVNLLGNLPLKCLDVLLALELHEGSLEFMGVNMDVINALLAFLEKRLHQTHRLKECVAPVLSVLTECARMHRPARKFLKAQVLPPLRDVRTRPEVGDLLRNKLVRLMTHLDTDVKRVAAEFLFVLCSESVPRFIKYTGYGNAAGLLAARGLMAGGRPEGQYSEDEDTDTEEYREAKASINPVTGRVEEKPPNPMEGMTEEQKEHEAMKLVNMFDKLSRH
Test: ITC; 250 µM peptide injected into 25 µM Ric-8A in the cell, 25°C, single binding site model
Settings: both partners purified

B1: Gαi1C18, amidated peptide of the 18 C-terminal residues of rat Gαi1 (peptide)
peptide: DAVTDVIIKNNLKDCGLF-NH2
notes: Gαi1, rat, the C-terminal 18 residues; source: synthetic peptide (FMOC chemistry, HPLC purified)
Q: For B1, which Kd is on record?
A: 12 µM

Q: And the dH?
A: -5.3 kcal/mol

Q: What about the “stoichiometry N” value of the same binder?
A: 0.9
